Test results: patent US20240327525A1 (VIB VZW, published 2024)
Read-outs that look alike come from different tables or passages of the source.

Columns and labels:
[1] = biological target: T1, human CI-M6PR domain1-3His6 (human, UniProt P11717 41-467); test: BLI, association pH 7.4, dissociation at pH 6.5, mean of local fits
T1 construct: Recombinant, made in HEK293 cells; Biotinylated with NHS-PEG4-biotin for BLI; unlabelled in SEC-MALLS and crystallisation; also called CI-M6PR hDom1-3His6; hDom1-3His6
Experimental: (§1) FIGS. 9A-9E. […] BLI was performed on an Octet Red96 (FortéBio) instrument in kinetics buffer (0.2 M Na₂HPO₄, 0.1 M Na⁺citrate, 0.01% bovine serum albumin, 0.002% Tween-20). Biotinylated human domain₁₋₃His₆ was immobilized on Streptavidin SA biosensors (Sartorius) to a signal of 0.6 nm. […] Between runs, biosensors were regenerated by three times 10 s exposure to regeneration buffer (10 mM glycine pH 3). The degree of association and dissociation was measured in δ nm over time(s).
as §1, with “10A-10E.” for “9A-9E.”, “assays,” for “runs,”

[2] = biological target: T1, human CI-M6PR domain1-3His6; test: BLI at pH 7.4
[3] = biological target: T1, human CI-M6PR domain1-3His6; test: BLI, biotinylated antigen on SA tips, global 1:1 fit, dissociation at pH 7.4
Experimental: (§2) Biotinylated human domain₁₋₃His₆ was immobilized on Streptavidin SA biosensors (Sartorius) to a signal of 0.6 nm. […] Between runs, biosensors were regenerated by three times 10 s exposure to regeneration buffer (10 mM glycine pH 3). The degree of association and dissociation was measured in δ nm over time(s).
as §1, with “10A-10E.” for “9A-9E.”, “assays,” for “runs,”
(§3) After loading, the tips were incubated with VHHs serially diluted in pH 7.4 kinetic buffer during the association phase and dissociation was performed at pH 7.4, pH 6.5, pH 6.0, pH 5.5 and pH 5.0. All biosensor tips were then regenerated before analysis of the subsequent VHH. Table 3 summarizes the kinetic parameters retrieved after processing and curve fitting of the BLI measurements.

[4] = biological target: T1, human CI-M6PR domain1-3His6; test: BLI, association pH 7.4, dissociation at pH 5.5, mean of local fits
Experimental: as §1
as §1, with “10A-10E.” for “9A-9E.”, “assays,” for “runs,”

[5] = biological target: T1, human CI-M6PR domain1-3His6; test: BLI, biotinylated antigen on SA tips, global 1:1 fit, association at pH 7.4
Experimental: as §2
as §1, with “10A-10E.” for “9A-9E.”, “assays,” for “runs,”
as §3

[6] = biological target: T1, human CI-M6PR domain1-3His6; test: BLI, association pH 7.4, dissociation at pH 5.0, mean of local fits
Experimental: as §1
as §1, with “10A-10E.” for “9A-9E.”, “assays,” for “runs,”

[7] = biological target: human cation-independent mannose-6-phosphate receptor on cells (human, UniProt P11717 41-2491); test: cell-based or functional assay
[8] = biological target: T1, human CI-M6PR domain1-3His6; test: BLI, association pH 7.4, dissociation at pH 6.0, mean of local fits
Experimental: as §1
as §1, with “10A-10E.” for “9A-9E.”, “assays,” for “runs,”

[9] = biological target: T1, human CI-M6PR domain1-3His6; test: not stated in the sentence (pH-dependent dissociation)
[10] = biological target: T1, human CI-M6PR domain1-3His6; test: BLI, association pH 7.4, dissociation at pH 6.5, mean of local fits; remark: listed apart in the source
Experimental: (§4) For VHH 1H11 (SEQ ID NO: 24) and VHH 1H52 (SEQ ID NO: 25), a BLI experiment was performed in which the human CI-M6PR domain₁₋₃His₆ was biotinylated and coupled to streptavidin biosensor tips. After loading, the tips were incubated with VHHs serially diluted in pH 7.4 kinetic buffer during the association phase and dissociation was performed at pH 7.4, pH 6.5, pH 6.0, pH 5.5 and pH 5.0. All biosensor tips were then regenerated before analysis of the subsequent VHH. […] When both association and dissociation were performed at pH 7.4, a global fit was performed according to the 1:1 binding model of which the resulting affinity constants (KD), association (kₒₙ) and dissociation rate constants (koff) are shown. For measurements with association at pH 7.4 and dissociation at pH 6.5, 6.0, 5.5 and 5.0, the depicted dissociation rate constants are an average of the parameters determined by local curve fitting of the dissociation of 200, 100 and 50 nM VHH. Association-dissociation curves for VHH1H11 and VHH1H52 are shown in FIG. 19 and FIG. 20, respectively.

[11] = biological target: T1, human CI-M6PR domain1-3His6; test: BLI, biotinylated antigen on SA tips, global 1:1 fit, association at pH 7.4; remark: listed apart in the source
Experimental: as §4

[12] = biological target: T1, human CI-M6PR domain1-3His6; test: BLI, association pH 7.4, dissociation at pH 5.5, mean of local fits; remark: listed apart in the source
Experimental: (§5) FIG. 19-20. Association-dissociation graphs of anti-CI-M6PR VHH1H11 and VHH1H52, resp. analyzed using BLI. BLI was performed on an Octet Red96 (FortéBio) instrument in kinetics buffer (0.2 M Na₂HPO₄, 0.1 M Na⁺citrate, 0.01% bovine serum albumin, 0.002% Tween-20). Biotinylated human domain₁₋₃His₆ was immobilized on Streptavidin SA biosensors (Sartorius) to a signal of 0.6 nm. A 120 s association phase in VHH 1H11 (FIG. 19) or VHH 1H52 (FIG. 20) serially diluted (0-200 nM) in pH 7.4 phosphate citrate buffer, was followed by 420 s of dissociation in phosphate buffer of either pH 7.4, 6.5, 6.0, 5.5 or 5.0. Between assays, biosensors were regenerated by three times 10 s exposure to regeneration buffer (10 mM glycine pH 3). The degree of association and dissociation was measured in δ nm over time(s).
(§6) For VHH 1H11 (SEQ ID NO: 24) and VHH 1H52 (SEQ ID NO: 25), a BLI experiment was performed in which the human CI-M6PR domain₁₋₃His₆ was biotinylated and coupled to streptavidin biosensor tips. […] For measurements with association at pH 7.4 and dissociation at pH 6.5, 6.0, 5.5 and 5.0, the depicted dissociation rate constants are an average of the parameters determined by local curve fitting of the dissociation of 200, 100 and 50 nM VHH. […]

[13] = biological target: T1, human CI-M6PR domain1-3His6; test: BLI, biotinylated antigen on SA tips, global 1:1 fit, dissociation at pH 7.4; remark: listed apart in the source
Experimental: as §4

[14] = biological target: T1, human CI-M6PR domain1-3His6; test: BLI, association pH 7.4, dissociation at pH 5.0, mean of local fits; remark: listed apart in the source
Experimental: as §5, §6

[15] = biological target: T1, human CI-M6PR domain1-3His6; test: BLI, association pH 7.4, dissociation at pH 6.0, mean of local fits; remark: listed apart in the source
Experimental: as §5, §6

Row | Binder | koff [1] [s⁻¹] | Kd [2] [nM] | Kd [3] [nM] | koff [3] [s⁻¹] | koff [4] [s⁻¹] | kon [5] [M⁻¹ s⁻¹] | koff [6] [s⁻¹] | internalisation rate (live-cell imaging of AF488-VHH on MCF7 cells) [7] [summed AF-voxels/minute] | koff [8] [s⁻¹] | fold higher dissociation rate at pH 6.0 versus pH 7.4 [9] [fold] | koff [10] [s⁻¹] | kon [11] [M⁻¹ s⁻¹] | koff [12] [s⁻¹] | Kd [13] [nM] | koff [13] [s⁻¹] | koff [14] [s⁻¹] | koff [15] [s⁻¹]
1 | anti-CI-M6PR VHH8 (VHH, Purified by IMAC, so tagged; Labelled with Alexa Fluor 488 (NHS ester) in the imaging experiments) VHH: QVQLQESGGGLVQAGGSLRLSCEASGRTFNTYNWGWFRQAPGKEREFVAAIRWSSSKTSYADSVKGRFTISRDNAKNTIYLQMNSLKPEDTAVYYCAASIVDFTTNPSHFGSWGQGTQVTVSS | 0.00084 | ~3.35 | 0.534 | 0.00032 | 0.0034 | 610000 | 0.023 | 673000 | 0.00091 | – | – | – | – | – | – | – | –
2 | anti-CI-M6PR VHH7 (VHH, Purified by IMAC, so tagged; Labelled with Alexa Fluor 488 (NHS ester) in the imaging experiments) VHH: QVQLQESGGGLVQPGGSLRLSCAASGIIFSDNRMDWYRQAPGKQREWVATLASYGWKTYADSVKGRFTISRDNTKNTVYLRMNSLKPEDTAVYYCKASSPVLNDIWGQGTQVTVSS | 0.0091 | – | 10.1 | 0.0055 | 0.013 | 540000 | 0.017 | 1.26e+06 | 0.0099 | 5 | – | – | – | – | – | – | –
3 | anti-CI-M6PR VHH 1H52 (VHH, Made in E. coli (pHEN6c), IMAC purified; tag not specified) VHH: QVQLQESGGGLVQPGGSLRLSCTASGFTWDSYVIGWFRQAPGKGREGVSCLDVDDGSIYYHDSAKGRFSISRDNAKNTVYLQMNSLKPEDTAVYYCAAVNRASMRFRRCLQVLRYDYWGQGTQVTVSS | – | – | – | – | – | – | – | – | – | – | 0.067 | 1e+06 | 0.051 | 31 | 0.032 | 0.2 | 0.03
4 | anti-CI-M6PR VHH 1H11 (VHH, Made in E. coli (pHEN6c), IMAC purified; tag not specified) VHH: QVQLQESGGGLVQPGGSLRLSCAASGIIFSDNRMDWYRQAPGKQREWVATLASYGWKTYADSVKDRFTISRDNAKNTVNLYMNSLQPEDTAVYYCNSGQYWGQGTQVTVSS | – | – | – | – | – | – | – | – | – | – | 0.0048 | 510000 | 0.0063 | 4.9 | 0.0025 | 0.0083 | 0.0051
